Assay results from article PMC5352738, “Characterization of three pyranose dehydrogenase isoforms from the litter-decomposing basidiomycete Leucoagaricus meleagris (syn. Agaricus meleagris)” (Applied Microbiology and Biotechnology, 2016).

How the values were obtained:
[1] = substrate: CO[C@H]1O[C@H](CO)[C@@H](O)[C@H](O)[C@H]1O; test: purified protein; assay type: biochemical, Macropsalliota meleagris; details: electron donor, 0.2 mM ferrocenium, 50 mM Na phosphate pH 7.5, 30 °C
[2] = substrate: O=C1C=CC(=O)C=C1; test: purified protein; assay type: biochemical, Macropsalliota meleagris; details: electron acceptor, 25 mM D-glucose, 100 mM Na acetate pH 4.0, 30 °C

B1: AmPDH3 (Macropsalliota meleagris) (protein)
chain: AITYQHPDDLPSDVDYDFIVAGGGTAGLVVASRLSENPDWNILVIEAGPSNKDAPETRVPGLAGSLPASRTDWNYTTIPQDALGGRSLNYSRAKVLGGCSSHNSMVYTRGSKDDWNHWADITGDQGLSWDSILPVMKKAEKFSKDFSNQSVDGHIDPSMHGHDGLLSVVSSYTNVSFNDLLLETTKELSDEFPFKLDLNDGNPHGLAWTQYTIDHRAERSSSATSYLESTRDNVHVLVNSRVTRIFSAGNGTDFRSVEFAVDANSPKKVLTAKKEVILSAGVIASPQVLMNSGIGGREELQAIGVDTLIDNPSVGKNLSDQAATLLMFDTTLPNTDYDVAAALTEWEDSRSGPMAYGARLNHLTWVRLLDDKLNGSDPSSGKNSPHIEFQFMQISHQLPPADAPNQVKLPDPDSIGAVLLLAVVNLYSVSHGSIILNDNDPFANPMIDLNMFGDQKDIAILREGVRSARRMFSSQAFKDVVNGTVYPPADVTSDEDLDAFLRTSAISYWHGVGTLSMSPQNASWGVVDPDFRVKGTSGLRVVDASVIPYAPAGHTQVPVYTFAEHASVLIAKSYA
notes: full-length pdh3 (600 aa precursor) in pPICZB-His6, His6-tag kept, secreted from Pichia pastoris X33; strongly N-glycosylated, ~65 kDa deglycosylated; standard yellow form with covalent FAD
[1]
  Km: 950 ± 60 µM
  kcat: 1 ± 0.01 s⁻¹
  kcat/Km: 1050 M⁻¹ s⁻¹
[2]
  Km: 1880 ± 140 µM
  kcat: 3.57 ± 0.11 s⁻¹
  kcat/Km: 1890 M⁻¹ s⁻¹

B2: AmPDH1 (Macropsalliota meleagris) (protein)
chain: AITYQHPDDLPSGVDYDFIVAGGGTAGLVVASRLSENSNWKVLVIEAGPSNKDAFVTRVPGLASTLGAGSPIDWNYTTIPQDGLDGRSLDYPRAKILGGCSTHNGMVYTRGSKDDWNSWAGIIGDQGLGWDSILPAIKKAEKFTQDFTDQSVKGHIDPSVHGFDGKLSVSAAYSNISFNDLLFETTKELNAEFPFKLDMNDGKPIGLGWTQYTIDNHAERSSSATSYLESTGDNVHVLVNTLVTRVLSASGNGTDFRKVEFAVDANSPKKQLEAKKEVIVAGGVIASPQILMNSGIGERKVLQAVGIDTLIDNPSVGKNLSDQGATSVMFDTTLPSTDFDVDAALTEWTNSHTGPLARGARLNHLTFVRLPDDKLNGQDPSSGKNSPHIEFQFAQITPQVPTLGVPKQAPLPAANSYRLLLQLAVVNLYSISRGSISLSDNNPFTYPLIDLNMFKEDIDIAILREGIRSAGRMFSSKAFKNSVNKFVYPPADATSDEDLDAFLRSSTFSYVHGVGTLSMSPKGASWGVVNPDFKVKGTSGLRVVDASVIPHAPAAHTQLPVYAFAEYASALIAKSYN
notes: full-length pdh1 (602 aa precursor) in pPICZB-His6, His6-tag kept, secreted from Pichia pastoris X33; N-glycosylated monomer, ~65 kDa deglycosylated; covalent FAD
[1]
  Km: 660 ± 50 µM
  kcat: 41.5 ± 0.8 s⁻¹
  kcat/Km: 62900 M⁻¹ s⁻¹

B3: AmPDH2 (Macropsalliota meleagris) (protein)
chain: AITYQHPDDLPSGVDYDFIVAGGGTAGLVVASRLSENSKWNVLVIEAGPSNKDTPETRIPGLADNLPGTRTDWNYTTIPQDALGGRSLNYSRAKVLGGCSTHNGMVYTRGPRDDWNYWAEITDNQALKWDNVLPIMKNTEKFSQDFLDQSMEGHIDPSVHGFDGMLSVVASYTNVSFNNLLLETTRELSDEFPFKLDLNDGKPHGLAWTQYTIDQGAERSSSATSYLESTGDNVHVLVNTHVTRIVSAGNETDFRSVEFAVDANSPKKVLTAKKELILSAGVIASPQILMNSGIGGREELQAIGVDTLIDNPSVGRNLSDQASTLLMFDTTLPNTDYDVAAALTEWDNSRSGPMAYAARLNHLTWVRLPDDKLSGSDPSSGHDSPHIEFQFRQISHQLPPADVPNQVQLPDPDSIGVVLQFSVVNLYSISLGSVTLNNNDPFADPIIDLNMFGDQKDIAILREGVRSARRMFSSQAFKNVVHETVYPPAGVTSDEDLDAFLRTSAVSYLHGVGTLSMSPHSASWGVVNPDFRVKGTTGLRVVDASVIPRAPAGHTQIPVYTFAEHASALIADSYN
notes: full-length pdh2 (600 aa precursor) in pPICZB-His6, His6-tag kept, secreted from Pichia pastoris X33; N-glycosylated, ~65 kDa deglycosylated; covalent FAD
[1]
  Km: 2000 ± 60 µM
  kcat: 85 ± 0.6 s⁻¹
  kcat/Km: 42500 M⁻¹ s⁻¹
[2]
  Km: 32.5 ± 1.9 µM
  kcat: 23.4 ± 0.5 s⁻¹
  kcat/Km: 780000 M⁻¹ s⁻¹
